How the values were obtained:
Type in all cases: in vivo
corn [1] = test: Greenhouse trial: Rhizopus oryzae Esterase corn seed treatment, plant height; settings: 0.5 fl oz/unit seed treatment, 6049 V2 hybrid corn, plant height day 10, water control = 100%
Experimental: Rhizopus oryzae Esterase (carboxylesterase, SEQ ID NO:253) was coated onto 6049 V2 hybrid corn seeds. A water only control treatment without esterase enzyme was also created. The seed treated with esterase and control seed was planted in replicated greenhouse trials on promix soil with a fluctuating day/night temperature of 78° F./75° F., and 13 hours of light daily. Plant heights were measured on day 10 for each plant emerged from the soil.

soybean [2] = test: Field trial: Geobacillus stearothermophilus esterase soybean seed treatment, yield; settings: 0.5 fl oz/unit on soybean seed; 6 sites
From the text: 0.5 fl oz/unit of Esterase (carboxylesterase) from Geobacillus/Bacillus stearothermophilus (SEQ ID NO:252) was coated onto soybean seeds treated with Evergol Energy (prothioconazole, metalaxyl, and penflufen fungicides) at 1 fl oz/cwt, Alias 4F (imidacloprid, insecticide) at 1.25 fl oz/unit, Sensient Red (colorant) at 0.5 fl oz/cwt, and Seedwork 4037L polymer at 1.5 fl oz/cwt. A control treatment without esterase enzyme was also created. The seed treated with esterase and control seed was planted in replicated trials distributed across 6 replicated plots with 4 replicates of 60 ft2 each at each site.

soybean [3] = test: Field trial: Feruloyl Esterase soybean seed treatment, yield; settings: 1 fl oz/unit on soybean seed; 5 sites
From the text: 1 fl oz/unit of Feruloyl Esterase (SEQ ID NO:91) was coated onto soybean seeds treated with Fludioxinil fungicide, metalaxyl fungicide, thiamethoxam […], Seedwork 1037L polymer, and Sensient Red (colorant). A control treatment without esterase enzyme was also created. The seed treated with esterase and control seed was planted in replicated trials distributed across 5 replicated plots with 4 replicates of 30 ft2 each at each site.

[4] = test system: Fall armyworm (Spodoptera frugiperda); test: Diet-surface overlay (DSO) bioassay on Fall armyworm; settings: number of individuals, n = 32, 7 days
Experimental: Diet-surface overlay bioassays are conducted with artificial diet mixes without antibiotics in 1.5 cm^2 cell bioassay trays(s). Artificial diets are commercially available from Southland Products Inc. Diets were prepared by dispersing 0.5 mL of molten diet to each 1.5 cm^2 cell. After solidification, 0.1 mL enzyme treatments were dispersed on top of diet in each cell and the tray was gently rocked in an orbital shaker to spread the liquid uniformly over the diet surface. Trays were placed under clean airflow until the surface of each cell was uniformly dried. One or two 16-cell sections were used per treatment (the number in larvae treated was 16 or 32).
One healthy first instar larva was placed into each treatment cell, each 16-cell section was covered with a re-sealable lid and incubated at 27° C. and light-dark period of 16:8 hrs. After 7 days, and according to the species, the number of individuals in the following developmental categories was recorded.
Negative/untreated controls were treated with filtered water and positive controls were treated with lethal doses of Bacillus thuringiensis subsp. Kurstaki (Btk) spores at 1000 ppm.

[5] = test system: Garden snails (Cornu aspersum); test: Antifeedant and molluscicide bioassay on garden snails (diet consumption, survival, weight gain)
Experimental: Two-week old garden snails (Cornu aspersum) and full-size black gloss snails (Zonitoides nitidus) were maintained in a semi-darkened tank at 68-70° F. at high humidity, provided with a wet sponge in a petri dish. Snails were transferred to fresh tank every 2-3 days, and they were feed ad libitum with cucumber slices supplemented with calcium carbonate tablets. Individuals were reared in the laboratory for at least a week to fully acclimate to laboratory conditions prior to testing. The individuals ranged between 3 weeks to 2 months old at the time of bioassay.
Filter-sterilized recombinant enzymes including proteases and lipases were prepared as indicated in Example 25. Corresponding controls (e.g., buffer, fermentation of non-recombinant strain, water) were be prepared accordingly. Enzymes were dried by mixing them with Polyvinylpyrrolidone K30 (Thermo Sci Chem, Cat #227545000) at a ratio of 60 mg PVP per mL of enzymes, dispersed on a petri dish and allowed to dry in a bio-safety hood for 24-48 hours.
The treatments were prepared by mixing 0.4 g of dry enzyme and 1 gram of artificial diet mix. The artificial diet mix consisted of flour supplemented with 30 mg sucrose per gram of flour. […]
12 snails were randomly assigned to each treatment, labeled with permanent marker on the top of the shell for identification, and their weight (mg) was recorded before treatment. […] At the time of treatment replacement, treatment consumption, weight, and mortality were recorded.
Acid protease, alkaline protease, aminopeptidase, neutral protease, and keratinase, were prepared as indicated above and their antifeedant and molluscicidal effects were tested. […] The units (U) of enzyme activity was determined as the amount of enzyme required to breakdown 1 μM of substrate per minute. […]
Lipases from Burkholderia cepacia, Pseudomonas fluorescens, porcine pancreas, type II (PPII) were prepared as described above and their antifeedant and molluscicidal effects were tested. […] The units (U) of enzyme activity was determined as the amount of enzyme required to breakdown 1 μM of substrate per minute. […]

corn [6] = test: Field trial: PytH Esterase corn seed treatment, yield; settings: 0.5 fl oz/unit on hybrid corn seed; 10 sites
From the text: 0.5 fl oz/unit of PythH Esterase from recombinant Bacillus subtilis fermentation (SEQ ID NO:255) was coated onto Hybrid corn seeds treated with Fludioxinil fungicide, ipconazole fungicide, peridium 1006 polymer, and Sensient Red (colorant). A control treatment without esterase enzyme was also created. The seed treated with esterase and control seed was planted in replicated trials distributed across 10 replicated plots with 4 replicates of 100 ft2 each at each site.

B1: Esterase from Rhizopus oryzae: Rhizopus oryzae Esterase (carboxylesterase, SEQ ID NO:253) (protein, listed as Rhizopus oryzae)
chain: SDGGKVVAATTAQIQEFTKYAGIAATAYCRSVVPGNKWDCVQCQKWVPDGKIITTFTSLLSDTNGYVLRSDKQKTIYLVFRGTNSFRSAITDIVFNFSDYKPVKGAKVHAGFLSSYEQVVNDYFPVVQEQLTANPTYKVIVTGHSLGGAQALLAGMDLYQREPRLSPKNLSIFTVGGPRVGNPTFAYYVESTGIPFQRTAHKRDIVPHVPPQSFGFLHPGVESWIKSGTSNVQICTSEIETKDCSNSIVPFTSILDHLSYFDINEGSCL
modifications: Rhizopus cf. oryzae
Height as % of Control (corn [1]): 103.7% | Height as % of Control (corn [1]; listed as Rhizopus oryzae Esterase): increase the growth rate of corn

B2: Geobacillus stearothermophilus esterase (SEQ ID NO:252): Esterase (carboxylesterase) from Geobacillus/Bacillus stearothermophilus (protein, listed as Bacillus stearothermophilus, listed as Geobacillus stearothermophilus)
chain: MKIVPPKPFFFEAGERAVLLLHGFTGNSADVRMLGRFLESKGYTCHAPIYKGHGVPPEELVHTGPDDWWQDVMNGYEFLKNKGYEKIAVAGLSLGGVFSLKLGYTVPIEGIVTMCAPMYIKSEETMYEGVLEYAREYKKREGKSEEQIEQEMEKFKQTPMKTLKALQELIADVRDHLDLIYAPTFVVQARHDEMINPDSANIIYNEIESPVKQIKWYEQSGHVITLDQEKDQLHEDIYAFLESLDW
yield vs base seed treatment package (in words) (soybean [2]): increased the yield

B3: Feruloyl Esterase (SEQ ID NO:91): Beauveria bassiana Feruloyl Esterase A2 (protein, listed as Beauveria bassiana)
chain: MLSLLGFLGFAALAAAAPVRDQAFIPRTLVNRSIYDKLALYAGYTQLSNTGICARPSVPGVLYQFVESKDTDTQVSIWKVDAYKEFVIAIPGTSSARDNETNFDFALVPYQADNVRCPSCRVHKGYQAAWRSVMKQVQGNLTNLLGIHPDYTVTLTGHSLGGGLVSIAFPTLRNGPYNVTQAYTYGQPRAGNGAFANYVDGISGASDKEAGIFYRVTHANDLIPKLPPGIFGYKHSRTEYWESKPSMDNAASTYRCYGQEPADCNRNATGIDSKVHVTYAGMNVTCNKS
modifications: Feruloyl Esterase A2
yield vs base seed treatment package (in words) (soybean [3]): increased the yield

B4: PpII Lipase: free lipase from porcine pancreas Type II (PpII) (protein, UniProt P00591 1-450, looked up)
Pancreatic triacylglycerol …: SEVCFPRLGCFSDDAPWAGIVQRPLKILPWSPKDVDTRFLLYTNQNQNNYQELVADPSTITNSNFRMDRKTRFIIHGFIDKGEEDWLSNICKNLFKVESVNCICVDWKGGSRTGYTQASQNIRIVGAEVAYFVEVLKSSLGYSPSNVHVIGHSLGSHAAGEAGRRTNGTIERITGLDPAEPCFQGTPELVRLDPSDAKFVDVIHTDAAPIIPNLGFGMSQTVGHLDFFPNGGKQMPGCQKNILSQIVDIDGIWEGTRDFVACNHLRSYKYYADSILNPDGFAGFPCDSYNVFTANKCFPCPSEGCPQMGHYADRFPGKTNGVSQVFYLNTGDASNFARWRYKVSVTLSGKKVTGHILVSLFGNEGNSRQYEIYKGTLQPDNTHSDEFDSDVEVGDLQKVKFIWYNNNVINPTLPRVGASKITVERNDGKVYDFCSQETVREEVLLTLNPC
Dead Larva ([4]; Table 46, lipases): 0 | Larva Stage I ([4]; Table 46): 2 | Larva Stage II ([4]; Table 46): 5 | Larva Stage III ([4]; Table 46): 15 | Larva Stage IV ([4]; Table 46): 10 | Diet consumption ([5]; lipases, garden snail, n = 12, 12 days, dose per treatment in U/gr diet): 0.82 gr | Dead Snails ([5]; lipases, garden snail, number of n = 12, 12 days): 0 | food consumption (in words) ([5]; text to Table 62, lipases in artificial diet, n = 12, 12 days): consistent reduction in food consumption

B5: PytH esterase (SEQ ID NO:255): Sphingobium wenxiniae (PytH) Esterase from recombinant Bacillus subtilis fermentation (protein, listed as Sphingobium wenxiniae)
chain: MTVTDIILIHGALNRGACYDAVVPLLEARGYRVHAPDLTGHTPGDGGHLSVVDMEHYTRPVADILARAEGQSILLGHSLGGASISWLAQHHPDKVAGLIYLTAVLTAPGITPETFVLPGEPNRGTPHALDLIQPVDEGRGLQADFSRLERLREVFMGDYPGEGMPPAEQFIQTQSTVPFGTPNPMEGRALEIPRLYIEALDDVVIPIAVQRQMQKEFPGPVAVVSLPASHAPYYSMPERLAEAIADFADAPAEYRQTATKAGPDRPAGADGGRADRADLP
yield vs base seed treatment package (in words) (corn [6]): increased the yield

Reference: patent US20260231954A1, “PESTICIDAL ENZYMES FOR USE ON NEMATODES, INSECTS, AND MOLLUSKS” (priority 2023, published 2026)
